Experimental findings from US20080118529A1 are described below.

This test addresses recombinant human collagen XVIII fragment endostatin (Entremed, Inc) (human) (UniProt P39060). Description: ELISA; protein incubated with DXS500k or buffer immobilized, overlaid with tPA in 10 mM εACA. A general note: ELISA stands for enzyme-linked immunosorbent assay.

Sequence of Tissue-type plasminogen activator (tPA, Actilyse, Boehringer-Ingelheim) (P00750 36-562 limits assumed): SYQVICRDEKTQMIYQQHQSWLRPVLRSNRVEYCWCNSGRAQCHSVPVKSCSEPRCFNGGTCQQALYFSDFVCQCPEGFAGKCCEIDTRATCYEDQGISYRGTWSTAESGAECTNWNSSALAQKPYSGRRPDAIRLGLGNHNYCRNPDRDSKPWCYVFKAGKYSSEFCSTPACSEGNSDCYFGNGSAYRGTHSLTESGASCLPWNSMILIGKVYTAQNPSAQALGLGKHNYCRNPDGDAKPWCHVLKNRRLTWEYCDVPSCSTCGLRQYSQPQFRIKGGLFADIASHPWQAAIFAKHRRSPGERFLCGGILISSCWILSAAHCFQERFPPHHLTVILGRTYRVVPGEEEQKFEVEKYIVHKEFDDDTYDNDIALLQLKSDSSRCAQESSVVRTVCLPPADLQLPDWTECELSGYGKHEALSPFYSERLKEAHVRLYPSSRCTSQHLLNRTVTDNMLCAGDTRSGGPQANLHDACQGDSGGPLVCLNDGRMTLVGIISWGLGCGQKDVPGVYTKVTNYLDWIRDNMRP

As for “Tissue-type plasminogen activator (tPA, Actilyse, Boehringer-Ingelheim) (from UniProt P00750 36-562) (enzyme)”, the factor of increase in tPA binding (protein exposed to DXS500k against protein in buffer only) came out at 10.5 fold.
